Data set [1] is described as follows: amine oxidase activity in vitro of renalase isolated from blood and urine. To be noted: basal conditions. Format: biochemical, human. The text has this:
We have tested renalase isolated from blood and urine.

Data set [2] in a line: blood pressure and heart rate in conscious mice. Format: in vivo. The procedure: We also tested the effect of renalase on blood pressure and heart rate in conscious mice. Recombinant renalase was prepared using the method described in Example 3 of PCT/US05/009248, which is specifically and completely incorporated herein by reference. As explained in more detail therein, the recombinant protein made in E. coli as used in the examples herein is refolded before administration. Thus, the recombinant renalase protein as used herein is in the active form (i.e., it is active renalase as defined above).
The recombinant protein was given by tail vein injection (100 μg) or retroorbital injection (1 mg) and ambulatory blood pressure and heart rates were measured continuously for 24 hours.

A short description of data set [3]: infusion of recombinant renalase into rats. Format: in vivo.
Data set [4] concerns isolated perfused mouse heart. The data set is described as follows: isolated perfused mouse heart model of ischemia-reperfusion. The text has this: Since renalase can metabolize catecholamines, we tested whether it could protect against ischemic myocardial damage.

“Also recorded” adds a separate entry of the source.

B1: protein isolated from human blood: native renalase isolated from human blood under basal conditions (protein, UniProt Q5VYX0 18-342, looked up)
Renalase: ALLRRQTSGPLYLAVWDKAEDSGGRMTTACSPHNPQCTADLGAQYITCTPHYAKKHQRFYDELLAYGVLRPLSSPIEGMVMKEGDCNFVAPQGISSIIKHYLKESGAEVYFRHRVTQINLRDDKWEVSKQTGSPEQFDLIVLTMPVPEILQLQGDITTLISECQRQQLEAVSYSSRYALGLFYEAGTKIDVPWAGQYITSNPCIRFVSIDNKKRNIESSEIGPSLVIHTTVPFGVTYLEHSIEDVQELVFQQLENILPGLPQPIATKCQKWRHSQVTNAAANCPGQMTLHHKPFLACGGDGFTQSNFDGCITSALCVLEALKNYI
As to B1, the “amine oxidase activity in vitro” value in data set [1] is on record as “no significant amine oxidase activity”.

B2: renalase isolated from human urine: native renalase isolated from human urine (protein, UniProt Q5VYX0 18-342, looked up)
Renalase: B1 Renalase
For the molecule B2, in data set [1], the “amine oxidase activity in vitro” value is recorded as “metabolizes catecholamines”.

B3: renalase: recombinant renalase protein made in E. coli, refolded before administration; secreted FAD-containing monoamine oxidase of the kidney (protein)
chain: ALLRKEITAPLYLALWDKAGDIGGRMTTANSPHNPRCTADLGAQYITCTPHYAKKHQNFYEELLAHGILEPLTSPIKGMEVKEGESNFVAPHGVSSIIKYYLKESGAEVFLRQCVTQINLRDNKWEVSEDTGSTQQFDLVILTMPAPQILGLQGDIVNLISERQRQQLASVSYSSRYALGLFYEAGMKIDVPWAGQYITSNPCIRFISIDSKKRNTESSECGPLLVVHTTVPFGVTHLEHSEEDVQELITQQLETILPGLPPPVATKCWKWRYSQVTNSAANSPGQMTLHLNPFLIYI
Consider B3, for which the mean blood pressure entry in data set [2] (100 μg by tail injection) was “remained unchanged”. The “minute-to-minute variability in blood pressure” value in data set [2] (100 μg by tail injection, conscious mice) is “decreased”. In addition, the heart rate entry in data set [2] (100 μg by tail injection, for several hours) is “significantly increased”; in data set [2] (1 mg by retroorbital injection), “significant and long-lasting fall”; in data set [3], “lower”. The blood pressure entry in data set [2] (1 mg by retroorbital injection) is “significant and long-lasting fall”; in data set [2] (continuous infusion by tail vein, 20 μg/minute, during the period of infusion), “reduction in blood pressure”; in data set [3], “reduction”. Moreover, the “reversibility of the blood pressure effect” value in data set [2] (continuous IV infusion, after stopping) is “reversible”. In addition, in data set [4] (infusion from 10 minutes before 15 min global ischemia until 2 hours after reperfusion, versus control protein glutathione synthase), the “myocardial (left ventricular) function” value is given as “preserved myocardial function significantly better; also recorded: preserves left ventrical (LV) function”. Besides, the “decrease of myocardial necrosis” value in data set [4] (ischemia-reperfusion, n=3, p<0.001) is recorded as 54%.

Source of the values: US7858084B2, “Methods of treatment with renalase (monoamine oxidase C)” (Yale University, priority 2005, dated 2010).
